8 molecules from US10618965 (dated 2020) can be followed below.

Residue numbers refer to the chain shown, from its start. Read-outs that look alike come from different tables or passages of the source. Where only a bound is given, the exact number is not on record here.

The target of assay [1] is T1, human IL-6 receptor (human).
T1 chain: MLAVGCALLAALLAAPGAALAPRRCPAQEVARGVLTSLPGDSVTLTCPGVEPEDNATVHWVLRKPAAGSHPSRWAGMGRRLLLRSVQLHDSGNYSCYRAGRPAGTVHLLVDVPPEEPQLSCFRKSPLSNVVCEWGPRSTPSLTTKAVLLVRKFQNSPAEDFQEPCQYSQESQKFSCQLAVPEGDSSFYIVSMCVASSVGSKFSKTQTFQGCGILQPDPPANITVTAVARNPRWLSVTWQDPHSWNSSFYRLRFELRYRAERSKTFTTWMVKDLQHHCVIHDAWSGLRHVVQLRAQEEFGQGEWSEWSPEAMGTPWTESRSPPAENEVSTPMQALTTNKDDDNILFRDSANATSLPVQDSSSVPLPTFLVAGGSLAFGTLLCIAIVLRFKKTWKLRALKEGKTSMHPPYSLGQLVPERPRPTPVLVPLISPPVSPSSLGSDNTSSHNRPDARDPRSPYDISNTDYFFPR
Put plainly: SPR, 3 uM CaCl2, 37C.

The target of assay [2] is T1, human IL-6 receptor. Put plainly: SPR, 3 uM CaCl2, 37C.
The target in assay [3] is human FcRn (with beta2-microglobulin) (human). Put plainly: SPR, pH 7.0.
Sequence of human FcRn (with beta2-microglobulin) (human) (chain, as listed by the source, chain 1 of 2): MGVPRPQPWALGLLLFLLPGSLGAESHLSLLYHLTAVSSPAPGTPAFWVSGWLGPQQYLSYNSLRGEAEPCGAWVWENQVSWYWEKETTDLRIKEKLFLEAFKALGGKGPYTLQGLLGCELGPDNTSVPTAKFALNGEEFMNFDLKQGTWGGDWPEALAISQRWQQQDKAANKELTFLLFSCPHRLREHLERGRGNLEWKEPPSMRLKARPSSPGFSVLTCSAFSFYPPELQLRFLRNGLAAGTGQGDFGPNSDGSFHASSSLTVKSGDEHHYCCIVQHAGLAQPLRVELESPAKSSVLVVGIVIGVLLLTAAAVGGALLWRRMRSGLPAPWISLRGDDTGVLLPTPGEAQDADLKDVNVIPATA
Sequence of human FcRn (with beta2-microglobulin) (human) (chain, as listed by the source, chain 2 of 2): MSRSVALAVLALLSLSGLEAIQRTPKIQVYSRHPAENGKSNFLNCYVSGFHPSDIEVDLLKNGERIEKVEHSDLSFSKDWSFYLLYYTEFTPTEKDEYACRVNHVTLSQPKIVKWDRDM
For assay [4] the target is unchanged. Put plainly: SPR, pH 7.0. This is another data set of the same source.
The target is the same in assay [5]. Put plainly: SPR, pH 7.0. The source holds these as a separate data set. A general note: Surface plasmon resonance follows binding to a sensor surface in real time, without labels.
The target is the same in assay [6]. Put plainly: SPR, pH 7.0. The source holds these as a separate data set.
The target is the same in assay [7]. Nature of the assay: SPR, pH 7.0. This is another data set of the same source.
The next assay deals with T2, mouse FcRn (mouse, UniProt Q61559).
T2 chain 1: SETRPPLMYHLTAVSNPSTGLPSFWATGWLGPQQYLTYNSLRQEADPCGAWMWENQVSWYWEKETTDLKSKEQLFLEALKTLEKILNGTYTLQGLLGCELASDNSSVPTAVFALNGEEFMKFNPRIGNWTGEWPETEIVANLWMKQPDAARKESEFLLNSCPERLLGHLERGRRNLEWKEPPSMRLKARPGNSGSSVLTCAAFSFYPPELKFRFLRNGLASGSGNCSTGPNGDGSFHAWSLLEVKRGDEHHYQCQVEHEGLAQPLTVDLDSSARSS
T2 chain 2: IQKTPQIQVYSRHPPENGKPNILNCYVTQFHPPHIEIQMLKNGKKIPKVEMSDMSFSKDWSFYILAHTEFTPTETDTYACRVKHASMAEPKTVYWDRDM
Nature of the assay: SPR, pH 7.0.

B1: FH4-IgG1 (antibody, V domains shown)
VH: QVQLVQSGAEVKKPGSSVKVSCKASGGTFSSYAISWVRQAPGQGLEWMGGIIPIFGTANYAQKFQGRVTITADESTSTAYMELSSLRSEDTAVYYCARERDYYDSSGYYDAFDIWGQGTMVTVSS
VL: ETTVTQSPSFLSASVGDRVTITCITTTDIDDDMNWFQQEPGKAPKLLISEGNILRPGVPSRFSSSGYGTDFTLTISKLQPEDFATYYCLQSDNLPFTFGQGTKLEIKR
Usually Kd stands for the equilibrium constant for the complex coming apart. As to B1, the Kd with human IL-6 receptor [1] was approximately 34000 nM; with human IL-6 receptor [2] it was more than 34000 nM.

B2: IgG2 (antibody)
chain 1: QVQLQESGPGLVKPSETLSLTCAVSGHSISHDHAWSWVRQPPGEGLEWIGFISYSGITNYNPSLQGRVTISRDNSKNTLYLQMNSLRAEDTAVYYCARSLARTTAMDYWGEGTLVTVSSASTKGPSVFPLAPCSRSTSESTAALGCLVKDYFPEPVTVSWNSGALTSGVHTFPAVLQSSGLYSLSSVVTVPSSNFGTQTYTCNVDHKPSNTKVDKTVERKCCVECPPCPAPPVAGPSVFLFPPKPKDTLMISRTPEVTCVVVDVSHEDPEVQFNWYVDGVEVHNAKTKPREEQFNSTFRVVSVLTVVHQDWLNGKEYKCKVSNKGLPAPIEKTISKTKGQPREPQVYTLPPSREEMTKNQVSLTCLVKGFYPSDIAVEWESNGQPENNYKTTPPMLDSDGSFFLYSKLTVDKSRWQQGNVFSCSVMHEALHNHYTQKSLSLSP
chain 2: not shown
Consider B2, for which the binding result in assay [3] is “no binding”.

B3: IgG2-F939 (antibody)
chain 1: B2 chain 1 with A234R, S237K, M250Y, N432Y, Y434V
chain 2: not shown
With B3, in assay [4], the Kd was determined as 140 nM.

B4: F947 (antibody)
chain 1: QVQLQESGPGLVKPSETLSLTCAVSGHSISHDHAWSWVRQPPGEGLEWIGFISYSGITNYNPSLQGRVTISRDNSKNTLYLQMNSLRAEDTAVYYCARSLARTTAMDYWGEGTLVTVSSASTKGPSVFPLAPSSKSTSGGTAALGCLVKDYFPEPVTVSWNSGALTSGVHTFPAVLQSSGLYSLSSVVTVPSSSLGTQTYICNVNHKPSNTKVDKKVEPKSCDKTHTCPPCPAPELLGGPSVFLFPPKPKDVLYISRTPEVTCVVVDVSHEDPEVKFNWYVDGVEVHNAKTKPREEQYNSTYRVVSVLQPLHADWLNGKEYKCKVSNKALPAPIEKTISKAKGQPREPQVYTLPPSRDELTKNQVSLTCLVKGFYPSDIAVEWESNGQPENNYKTTPPVLDSDGSFFLYSKLTVDKSRWQQGNVFSCSVMHEALHYHVTQKSLSLSP
chain 2: not shown
Regarding B4, the Kd in assay [5], in assay [6] and in assay [7] was 11 nM in each case.

B5: F1326 (antibody)
chain 1: B4 chain 1 with L236A, L237A
chain 2: not shown
For B5, the equilibrium dissociation constant (Kd) in assay [6] and in assay [7] was 11 nM each time.

B6: mIgG1 (antibody)
chain 1: DVQLQESGPVLVKPSQSLSLTCTVTGYSITSDHAWSWIRQFPGNKLEWMGYISYSGITTYNPSLKSRISITRDTSKNQFFLQLNSVTTGDTSTYYCARSLARTTAMDYWGQGTSVTVSSAKTTPPSVYPLAPGSAAQTNSMVTLGCLVKGYFPEPVTVTWNSGSLSSGVHTFPAVLQSDLYTLSSSVTVPSSTWPSETVTCNVAHPASSTKVDKKIVPRDCGCKPCICTVPEVSSVFIFPPKPKDVLTITLTPKVTCVVVDISKDDPEVQFSWFVDDVEVHTAQTQPREEQFNSTFRSVSELPIMHQDWLNGKEFKCRVNSAAFPAPIEKTISKTKGRPKAPQVYTIPPPKEQMAKDKVSLTCMITDFFPEDITVEWQWNGQPAENYKNTQPIMDTDGSYFVYSKLNVQKSNWEAGNTFTCSVLHEGLHNHHTEKSLSHSPGK
chain 2: not shown
For the molecule B6, the binding result with mouse FcRn was “no binding”.

B7: 6RL#9-IgG1 (antibody, V domains shown)
VH: QVQLVQSGAEVKKPGASVKVSCKASGYTFTSYYMHWVRQAPGQGLEWMGIINPSGGSTSYAQKFQGRVTMTRDTSTSTVYMELSSLRSEDTAVYYCARDDPGGGEYYFDYWGQGTLVTVSS
VL: QSVLTQPPSVSGAPGQRVTISCTGSRSNMGAGYDVHWYQLLPGAAPKLLISHNTHRPSGVPDRFSGSKSGASASLAITGLQAEDEADYYCQSHDSSLSAVVFGGGTKLTVLS
For B7, the Kd with human IL-6 receptor [1] is approximately 31000 nM; with human IL-6 receptor [2], more than 31000 nM.

B8: IgG4-F890 (antibody)
chain 1: QVQLQESGPGLVKPSETLSLTCAVSGHSISHDHAWSWVRQPPGEGLEWIGFISYSGITNYNPSLQGRVTISRDNSKNTLYLQMNSLRAEDTAVYYCARSLARTTAMDYWGEGTLVTVSSASTKGPSVFPLAPCSRSTSESTAALGCLVKDYFPEPVTVSWNSGALTSGVHTFPAVLQSSGLYSLSSVVTVPSSSLGTKTYTCNVDHKPSNTKVDKRVESKYGPPCPPCPAPEFLGGPSVFLFPPKPKDTLYISRTPEVTCVVVDVSQEDPEVQFNWYVDGVEVHNAKTKPREEQFNSTYRVVSVLTVLHQDWLNGKEYKCKVSNKGLPSSIEKTISKAKGQPREPQVYTLPPSQEEMTKNQVSLTCLVKGFYPSDIAVEWESNGQPENNYKTTPPVLDSDGSFFLYSRLTVDKSRWQEGNVFSCSVMHEALHYHVTQKSLSLSL
chain 2: not shown
In assay [4], B8 returned an equilibrium dissociation constant (Kd) of 140 nM.
